{
  "source": "patent US8246957",
  "key": {"[1]": {"biological_target": "gp120 of HIV-1 primary isolate SF-162 (clade B) (HIV-1 strain SF-162)", "experiment": "cell-based or functional assay"}, "[2]": {"biological_target": "gp120 of HIV-1 primary isolate BR004 (clade C) (HIV-1 strain BR004)", "experiment": "cell-based or functional assay"}},
  "data": [
    {"substance": "IgG clone b12 (antibody)", "values": [
      {"measurement": "IC50, HIV-1 neutralization (p24, PBMC hosts) (µg Ab fragment/ml)", "setting": "[1]", "result": 1.1},
      {"measurement": "IC90, HIV-1 neutralization (p24, PBMC hosts) (µg Ab fragment/ml)", "setting": "[1]", "result": 14.1},
      {"measurement": "IC50, HIV-1 neutralization (p24, PBMC hosts) (µg Ab fragment/ml)", "setting": "[2]", "result": 9},
      {"measurement": "IC90, HIV-1 neutralization (p24, PBMC hosts) (µg Ab fragment/ml)", "setting": "[2]", "result": 333}
    ]}
  ]
}
